Reference: patent US20240132603A1 (HARBOUR BIOMED US, published 2024)
Numbering of substitutions follows the chain as printed.

B1: PR004324 (antibody, human IgG1, kappa, V domains shown)
VH: EVQLVESGGGLVQPKGSLKLSCAASGFTFNTYAMNWVRQAPGKGLEWVARIRSKSNNYATYYADSVKDRFTISRDDSQSMLYLQMNNLKTEDTAMYYCVRGKENGNYYAMDFWGQGTSVTVSA
VL: DIVMTQAAPSVPVTPGESVSISCRSSKSLLHSNAKIYLYWFLQRPGQSPQLLIYRMSNLASGVPDRFSGSGSGTAFTLRISRVEAEDVGVYYCMQHLEYPLTFGAGTKLEIKR
notes: PTM variant of PR004128, IgG1 with DE mutation
B2: PR004325 (antibody, human IgG1, kappa, V domains shown)
VH: B1 VH
VL: B1 VL with N33Q, A34G
notes: as for B1
B3: PR004326 (antibody, human IgG1, kappa, V domains shown)
VH: B1 VH with G105A
VL: B1 VL with A34G
notes: as for B1
B4: PR004327 (antibody, human IgG1, kappa, V domains shown)
VH: B1 VH with N30Q
VL: B1 VL with A34G
notes: as for B1
B5: PR004328 (antibody, human IgG1, kappa, V domains shown)
VH: B1 VH with N30S
VL: B1 VL with A34G
notes: as for B1
B6: PR004329 (antibody, human IgG1, kappa, V domains shown)
VH: B1 VH with N104Q
VL: B1 VL with A34G
notes: as for B1
B7: PR004336 (antibody, human IgG1, kappa, V domains shown)
VH: B1 VH with K15G, P41S, A49G, Q78K, M80T, N87S, M95V, S118T, A123S
VL: B1 VL with A34G
notes: heavy-chain semi-humanized variant of PR004128, IgG1 with DE mutation
B8: PR004337 (antibody, human IgG1, kappa, V domains shown)
VH: B1 VH with K15G, Y32N, P41S, A49G, Q78K, M80T, N87S, M95V, S118T, A123S
VL: B1 VL with A34G
notes: as for B7
B9: PR005329 (antibody, human IgG1, kappa)
heavy: not shown
light: DIVMTQAAPSVPVTPGESVSISCRSSKSLLHSNGNTYLYWFLQRPGQSPQLLIYRMSNLASGVPDRFSSSGSGTDFTLRISRVEAEDVGVYYCMQHLEYPFTFGAGTKLEIKRTVAAPSVFIFPPSDEQLKSGTASVVCLLNNFYPREAKVQWKVDNALQSGNSQESVTEQDSKDSTYSLSSTLTLSKADYEKHKVYACEVTHQGLSSPVTKSFNRGEC
notes: called CCR8 chimeric antibody; human IgG1 constant region
B10: PR005332 (antibody, human IgG1, kappa)
heavy: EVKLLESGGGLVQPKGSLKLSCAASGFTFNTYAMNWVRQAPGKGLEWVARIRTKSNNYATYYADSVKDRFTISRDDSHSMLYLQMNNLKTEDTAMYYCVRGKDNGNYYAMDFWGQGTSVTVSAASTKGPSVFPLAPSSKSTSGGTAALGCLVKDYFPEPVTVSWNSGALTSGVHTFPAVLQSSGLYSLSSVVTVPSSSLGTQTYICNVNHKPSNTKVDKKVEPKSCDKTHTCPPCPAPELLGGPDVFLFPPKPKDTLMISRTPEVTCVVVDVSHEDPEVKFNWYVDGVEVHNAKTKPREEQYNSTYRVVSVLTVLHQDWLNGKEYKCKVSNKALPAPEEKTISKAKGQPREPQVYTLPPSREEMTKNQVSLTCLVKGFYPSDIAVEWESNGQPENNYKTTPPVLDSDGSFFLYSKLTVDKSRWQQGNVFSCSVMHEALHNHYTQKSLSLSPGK
light: B9 light
notes: same VH/VL as PR005329, other heavy chain entry
B11: PR005330 (antibody, human IgG1, kappa)
heavy: not shown
light: B9 light with P9T, P12L, H31Y, S69G, D75A, A105G, I111L
notes: as for B9
B12: PR005333 (antibody, human IgG1, kappa)
heavy: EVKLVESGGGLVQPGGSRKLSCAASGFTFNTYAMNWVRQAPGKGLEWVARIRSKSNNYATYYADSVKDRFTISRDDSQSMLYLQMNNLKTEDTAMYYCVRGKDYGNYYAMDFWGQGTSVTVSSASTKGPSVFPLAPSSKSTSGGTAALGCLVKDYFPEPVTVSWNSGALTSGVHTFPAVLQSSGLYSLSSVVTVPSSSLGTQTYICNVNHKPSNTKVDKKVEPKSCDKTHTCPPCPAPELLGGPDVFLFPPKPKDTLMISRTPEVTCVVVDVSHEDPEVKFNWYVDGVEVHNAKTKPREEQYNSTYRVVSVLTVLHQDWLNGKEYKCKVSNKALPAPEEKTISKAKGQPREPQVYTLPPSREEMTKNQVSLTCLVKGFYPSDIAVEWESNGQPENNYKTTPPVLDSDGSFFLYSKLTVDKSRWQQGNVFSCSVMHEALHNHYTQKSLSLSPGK
light: B9 light with P9T, P12L, H31Y, S69G, D75A, A105G, I111L
notes: same VH/VL as PR005330, other heavy chain entry
B13: PR005125 (antibody, human IgG1, kappa)
heavy: not shown
light: DIVMTQSPLSLSVTLGQPASISCRSSQSLVFSNGNTYLNWFQQRPGQSPRRLIYKVSKRDSGVPDRFSGSGSGTDFTLKISRVEAEDVGVYYCMQGTHWITFGQGTRLEIKRTVAAPSVFIFPPSDEQLKSGTASVVCLLNNFYPREAKVQWKVDNALQSGNSQESVTEQDSKDSTYSLSSTLTLSKADYEKHKVYACEVTHQGLSSPVTKSFNRGEC
notes: fully human, human IgG1 constant region
B14: PR005128 (antibody, human IgG1, kappa)
heavy: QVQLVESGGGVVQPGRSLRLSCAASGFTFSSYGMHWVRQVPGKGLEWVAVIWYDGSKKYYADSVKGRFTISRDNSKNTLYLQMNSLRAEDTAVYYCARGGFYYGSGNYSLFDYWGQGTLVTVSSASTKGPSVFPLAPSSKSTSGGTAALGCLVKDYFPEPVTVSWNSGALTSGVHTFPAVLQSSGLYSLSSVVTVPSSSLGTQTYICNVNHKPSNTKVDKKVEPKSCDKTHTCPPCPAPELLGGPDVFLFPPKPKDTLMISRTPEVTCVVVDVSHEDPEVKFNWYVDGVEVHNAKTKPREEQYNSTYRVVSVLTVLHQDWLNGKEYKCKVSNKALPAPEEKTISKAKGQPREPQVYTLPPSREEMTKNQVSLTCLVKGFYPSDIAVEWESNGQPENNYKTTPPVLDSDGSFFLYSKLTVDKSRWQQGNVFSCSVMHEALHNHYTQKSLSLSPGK
light: B13 light
notes: fully human; same VH/VL as PR005125, other heavy chain entry
B15: PR005335 (antibody, human IgG1, kappa, V domains shown)
VH: QVQLVQSGGGLVQPGGSLRLSCTASGFTFSYYWLSWVRQAPGKGLEWVANIKQDGSTTYYVDSVKGRFTISRDNAKNSLYLQMNSLRAEDTAVYYCARNWGFDYWGQGTLVTVSS
VL: not shown
notes: as for B13

These binders were tested against T1, cynomolgus monkey CCR8 (cynomolgus monkey, UniProt G7NYJ2 1-355) (assay: FACS, CHO-K1-CynoCCR8 cells).
T1 construct: whole, on cells; also called CynoCCR8
Procedure: (§1) Cells overexpressing cynomolgus monkey CCR8, CHO-K1-CynoCCR8, were digested with pancreatin, counted and resuspended to a cell density of 1E6 cells/mL. The cell suspension was added to a 96-well V-bottom plate at 100 μL/well and centrifuged at 300 g for 5 min, and the supernatant was discarded. The anti-CCR8 antibodies provided herein was used as a primary antibody and diluted in a 5-fold gradient with an FACS buffer (DPBS containing 2% FBS) from 200 nM. The diluted primary antibody was added at 100 μL/well to resuspend the cells, and the mixture was incubated at 4° C. for 1 h. The plate was washed twice with DPBS and centrifuged at 300×g for 5 min, and the supernatant was discarded. The secondary antibody diluted in a 1:1000 ratio with an FACS buffer was added at 100 μL/well to suspend the cells, and the mixture was incubated at 4° C. for 40 min. The plate was washed twice with DPBS and centrifuged at 300×g for 5 min, and the supernatant was discarded. DPBS was added at 200 μL/well to suspend the cells, and the mixture was loaded on an FACS machine for analysis.

T1 sequence (G7NYJ2 entry or part of it): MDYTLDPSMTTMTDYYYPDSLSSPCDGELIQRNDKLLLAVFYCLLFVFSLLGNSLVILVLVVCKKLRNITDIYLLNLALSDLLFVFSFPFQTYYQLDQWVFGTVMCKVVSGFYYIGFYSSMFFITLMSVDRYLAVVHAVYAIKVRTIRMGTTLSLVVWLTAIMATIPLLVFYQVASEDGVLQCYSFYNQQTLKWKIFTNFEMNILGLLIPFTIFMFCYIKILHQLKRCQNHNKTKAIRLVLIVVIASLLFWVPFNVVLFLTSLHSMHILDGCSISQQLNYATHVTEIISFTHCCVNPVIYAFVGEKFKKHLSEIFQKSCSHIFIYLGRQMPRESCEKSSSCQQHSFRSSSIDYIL

Compared with B1, B2 is 1.7-fold higher in EC50: 2.3 nM for the first, 3.89 nM for the second.

Compared with B3, B4 is 18-fold higher in EC50: 0.75 nM for the first, 13.4 nM for the second.

Going from B5 to B6, the EC50 falls from 6.05 nM to 0.41 nM (15-fold). The second is the more potent here.

Going from B7 to B8, the EC50 rises from 3.33 nM to 5.47 nM (1.6-fold).

These binders were tested against T2, human CCR8 (human, UniProt P51685 1-355) (assay: FACS, CHO-K1-hCCR8 cells).
T2 construct: whole, on cells; construct used for the overexpressing cell lines is not described; also called hCCR8
Procedure: as §1, with “human CCR8” for “cynomolgus monkey CCR8, CHO-K1-CynoCCR8,”

T2 sequence (P51685 whole entry): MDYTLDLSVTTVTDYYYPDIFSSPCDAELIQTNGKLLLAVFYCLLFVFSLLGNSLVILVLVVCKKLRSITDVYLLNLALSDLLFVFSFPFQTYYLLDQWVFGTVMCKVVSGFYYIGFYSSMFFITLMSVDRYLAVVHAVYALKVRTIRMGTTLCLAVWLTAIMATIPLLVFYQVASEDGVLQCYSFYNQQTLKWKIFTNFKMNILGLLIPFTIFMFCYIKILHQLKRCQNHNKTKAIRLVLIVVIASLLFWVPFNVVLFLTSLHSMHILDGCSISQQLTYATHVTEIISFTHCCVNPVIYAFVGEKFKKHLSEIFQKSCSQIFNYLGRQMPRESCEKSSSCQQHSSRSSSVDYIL

First: B1
Second: B2
The EC50 of the first is 2-fold lower: 0.67 nM for the first, 1.31 nM for the second.

Compared with B3, B4 is 2.9-fold higher in EC50: 0.37 nM for the first, 1.08 nM for the second. The first is the more potent here.

First: B5
Second: B6
The EC50 of the first is 5.9-fold higher: 1 nM for the first, 0.17 nM for the second. The second is the more potent here.

B7 and B8 are within 1.5-fold of each other in EC50: 0.79 nM for the first, 0.76 nM for the second.

Biological target: T2, human CCR8
Assay: FACS, CHO-K1-hCCR8 cells
Remark: another data set of the same source
Procedure: as §1, with “human CCR8” for “cynomolgus monkey CCR8, CHO-K1-CynoCCR8,”

B9 and B10 are within 1.5-fold of each other in EC50: 0.49 nM for the first, 0.63 nM for the second.

B11 and B12 are within 1.5-fold of each other in EC50: 0.47 nM for the first, 0.52 nM for the second.

B13 and B14 are within 1.5-fold of each other in EC50: 0.44 nM for the first, 0.37 nM for the second.

B15 showed an EC50 of 0.47 nM.
